Measured values as given in US20110150901A1.

Target: complex of FGFR1c and β-Klotho (recombinant proteins) (UniProt P11362)
Assay: AlphaScreen competition
Settings: ligand

Sequence of complex of FGFR1c and β-Klotho (recombinant proteins) (P11362 other isoform, or with tags, fused parts or gaps, chain 1 of 2): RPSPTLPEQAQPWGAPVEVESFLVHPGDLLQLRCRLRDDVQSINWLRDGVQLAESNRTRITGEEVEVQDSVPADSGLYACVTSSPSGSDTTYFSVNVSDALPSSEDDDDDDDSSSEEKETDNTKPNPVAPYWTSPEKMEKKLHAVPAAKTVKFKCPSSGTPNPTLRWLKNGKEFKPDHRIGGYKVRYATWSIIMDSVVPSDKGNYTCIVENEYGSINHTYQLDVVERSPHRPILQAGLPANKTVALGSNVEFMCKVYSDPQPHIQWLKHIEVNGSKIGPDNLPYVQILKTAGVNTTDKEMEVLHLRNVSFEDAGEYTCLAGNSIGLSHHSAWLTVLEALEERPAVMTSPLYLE
Sequence of complex of FGFR1c and β-Klotho (recombinant proteins) (Q86Z14 53-996, chain 2 of 2, further chain): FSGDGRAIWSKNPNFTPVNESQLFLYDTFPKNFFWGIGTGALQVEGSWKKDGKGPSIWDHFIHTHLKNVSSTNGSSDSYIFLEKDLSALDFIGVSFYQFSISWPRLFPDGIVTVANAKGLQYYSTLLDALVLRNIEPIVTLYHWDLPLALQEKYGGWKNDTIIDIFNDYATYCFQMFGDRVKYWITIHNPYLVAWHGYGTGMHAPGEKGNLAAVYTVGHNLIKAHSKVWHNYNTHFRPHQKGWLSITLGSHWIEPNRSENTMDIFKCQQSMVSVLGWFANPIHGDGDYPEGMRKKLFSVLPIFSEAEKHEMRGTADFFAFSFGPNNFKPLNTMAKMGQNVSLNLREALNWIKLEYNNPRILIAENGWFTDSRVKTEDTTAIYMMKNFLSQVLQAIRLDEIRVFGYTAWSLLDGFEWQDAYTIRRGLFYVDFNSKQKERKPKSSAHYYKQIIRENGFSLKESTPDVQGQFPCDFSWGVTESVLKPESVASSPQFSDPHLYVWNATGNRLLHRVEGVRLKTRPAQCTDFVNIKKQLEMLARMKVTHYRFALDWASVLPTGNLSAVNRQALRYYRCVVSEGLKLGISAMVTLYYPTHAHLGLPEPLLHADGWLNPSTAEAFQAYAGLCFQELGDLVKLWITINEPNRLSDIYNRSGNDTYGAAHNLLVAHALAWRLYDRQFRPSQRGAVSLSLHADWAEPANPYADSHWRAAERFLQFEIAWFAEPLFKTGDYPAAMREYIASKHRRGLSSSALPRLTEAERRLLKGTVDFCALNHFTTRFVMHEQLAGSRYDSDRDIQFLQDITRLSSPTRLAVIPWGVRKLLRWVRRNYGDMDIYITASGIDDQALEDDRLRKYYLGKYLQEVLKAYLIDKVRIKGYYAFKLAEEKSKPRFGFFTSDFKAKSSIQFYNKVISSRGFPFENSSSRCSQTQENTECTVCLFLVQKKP

Work on “human FGF21 (from UniProt Q9NSA1 29-209)” yielded an IC50 of 2.6 nM.
